Target: T1, Human CD137 ECD (human)
T1 construct: also called 4-1BB
Assay: single mutant vs template dBBDu183H

T1 sequence (chain, as listed by the source limits assumed): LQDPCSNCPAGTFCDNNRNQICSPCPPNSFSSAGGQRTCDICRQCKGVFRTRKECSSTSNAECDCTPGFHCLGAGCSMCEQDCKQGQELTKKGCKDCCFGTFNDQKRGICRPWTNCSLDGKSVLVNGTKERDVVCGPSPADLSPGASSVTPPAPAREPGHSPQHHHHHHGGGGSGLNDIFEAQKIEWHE

Binder	fold change of affinity [fold]
H183/L072 VH T28A (antibody, name in Kabat numbering, V domains shown) VH: QVQLVESGGGLVQPGRSLRLSCAASGFAFSNAWMHWVRQAPGKGLEWVAQIKDKGNAYAAYYAPSVKGRFTISRDDSKNSIYLQMNSLKTEDTAVYYCHYVHYASASTVLPAFGVDAWGQGTTVTVSS VL: DIVMTQSPLSLPVTPGEPASISCQASQELVHMNRNTYLHWYQQKPGQAPRLLIYKVSNRFPGVPDRFSGSGSGTDFTLKISRVEAEDVGVYYCAQGTSVPFTFGQGTKLEIK	0.4
H183/L072 VH T28G (antibody, name in Kabat numbering, V domains shown) VH: QVQLVESGGGLVQPGRSLRLSCAASGFGFSNAWMHWVRQAPGKGLEWVAQIKDKGNAYAAYYAPSVKGRFTISRDDSKNSIYLQMNSLKTEDTAVYYCHYVHYASASTVLPAFGVDAWGQGTTVTVSS VL: DIVMTQSPLSLPVTPGEPASISCQASQELVHMNRNTYLHWYQQKPGQAPRLLIYKVSNRFPGVPDRFSGSGSGTDFTLKISRVEAEDVGVYYCAQGTSVPFTFGQGTKLEIK	0.3
H183/L072 VH T28H (antibody, name in Kabat numbering, V domains shown) VH: QVQLVESGGGLVQPGRSLRLSCAASGFHFSNAWMHWVRQAPGKGLEWVAQIKDKGNAYAAYYAPSVKGRFTISRDDSKNSIYLQMNSLKTEDTAVYYCHYVHYASASTVLPAFGVDAWGQGTTVTVSS VL: DIVMTQSPLSLPVTPGEPASISCQASQELVHMNRNTYLHWYQQKPGQAPRLLIYKVSNRFPGVPDRFSGSGSGTDFTLKISRVEAEDVGVYYCAQGTSVPFTFGQGTKLEIK	1.1
H183/L072 VH T28P (antibody, name in Kabat numbering, V domains shown) VH: QVQLVESGGGLVQPGRSLRLSCAASGFPFSNAWMHWVRQAPGKGLEWVAQIKDKGNAYAAYYAPSVKGRFTISRDDSKNSIYLQMNSLKTEDTAVYYCHYVHYASASTVLPAFGVDAWGQGTTVTVSS VL: DIVMTQSPLSLPVTPGEPASISCQASQELVHMNRNTYLHWYQQKPGQAPRLLIYKVSNRFPGVPDRFSGSGSGTDFTLKISRVEAEDVGVYYCAQGTSVPFTFGQGTKLEIK	0.5
H183/L072 VH T28K (antibody, name in Kabat numbering, V domains shown) VH: QVQLVESGGGLVQPGRSLRLSCAASGFKFSNAWMHWVRQAPGKGLEWVAQIKDKGNAYAAYYAPSVKGRFTISRDDSKNSIYLQMNSLKTEDTAVYYCHYVHYASASTVLPAFGVDAWGQGTTVTVSS VL: DIVMTQSPLSLPVTPGEPASISCQASQELVHMNRNTYLHWYQQKPGQAPRLLIYKVSNRFPGVPDRFSGSGSGTDFTLKISRVEAEDVGVYYCAQGTSVPFTFGQGTKLEIK	1.1
H183/L072 VH T28E (antibody, name in Kabat numbering, V domains shown) VH: QVQLVESGGGLVQPGRSLRLSCAASGFEFSNAWMHWVRQAPGKGLEWVAQIKDKGNAYAAYYAPSVKGRFTISRDDSKNSIYLQMNSLKTEDTAVYYCHYVHYASASTVLPAFGVDAWGQGTTVTVSS VL: DIVMTQSPLSLPVTPGEPASISCQASQELVHMNRNTYLHWYQQKPGQAPRLLIYKVSNRFPGVPDRFSGSGSGTDFTLKISRVEAEDVGVYYCAQGTSVPFTFGQGTKLEIK	0.3
H183/L072 VH T28M (antibody, name in Kabat numbering, V domains shown) VH: QVQLVESGGGLVQPGRSLRLSCAASGFMFSNAWMHWVRQAPGKGLEWVAQIKDKGNAYAAYYAPSVKGRFTISRDDSKNSIYLQMNSLKTEDTAVYYCHYVHYASASTVLPAFGVDAWGQGTTVTVSS VL: DIVMTQSPLSLPVTPGEPASISCQASQELVHMNRNTYLHWYQQKPGQAPRLLIYKVSNRFPGVPDRFSGSGSGTDFTLKISRVEAEDVGVYYCAQGTSVPFTFGQGTKLEIK	0.7
H183/L072 VH T28I (antibody, name in Kabat numbering, V domains shown) VH: QVQLVESGGGLVQPGRSLRLSCAASGFIFSNAWMHWVRQAPGKGLEWVAQIKDKGNAYAAYYAPSVKGRFTISRDDSKNSIYLQMNSLKTEDTAVYYCHYVHYASASTVLPAFGVDAWGQGTTVTVSS VL: DIVMTQSPLSLPVTPGEPASISCQASQELVHMNRNTYLHWYQQKPGQAPRLLIYKVSNRFPGVPDRFSGSGSGTDFTLKISRVEAEDVGVYYCAQGTSVPFTFGQGTKLEIK	0.8
